Experimental findings from patent US20260242497A1 are described below.

In general, Kd refers to the constant that tells how readily two partners part at equilibrium. The low end stands for tighter binding, the high end for weaker binding.

Assay [1] addresses human FcRn (human) (UniProt P55899). In words: SPR, Biacore 8K, CM5 chip, antibody immobilised, human FcRn as analyte, pH 6.0; average of multiple experiments. Background: Surface plasmon resonance follows binding to a sensor surface in real time, without labels.
For assay [2] the target is unchanged. In words: SPR, Biacore 8K, CM5 chip, antibody immobilised, human FcRn as analyte, pH 6.0.

human FcRn (human), sequence (P55899 24-297 limits assumed, chain 1 of 2): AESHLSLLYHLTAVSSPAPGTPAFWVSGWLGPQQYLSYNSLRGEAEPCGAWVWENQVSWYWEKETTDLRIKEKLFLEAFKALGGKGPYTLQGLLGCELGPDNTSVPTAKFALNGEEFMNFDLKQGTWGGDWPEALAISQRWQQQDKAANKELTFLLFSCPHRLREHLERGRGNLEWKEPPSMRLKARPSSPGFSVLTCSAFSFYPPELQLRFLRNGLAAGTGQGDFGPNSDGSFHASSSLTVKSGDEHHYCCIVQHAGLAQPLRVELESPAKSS
human FcRn (human), sequence (beta, as listed by the source limits assumed, chain 2 of 2): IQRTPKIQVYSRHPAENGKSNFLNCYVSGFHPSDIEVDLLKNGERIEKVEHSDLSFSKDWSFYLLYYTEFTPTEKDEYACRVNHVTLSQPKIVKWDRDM

Regarding Rituximab (antibody), the Kd with human FcRn (human) [1] was 2130 nM. In the assay with human FcRn (human) [2], AVTX-009 (Avalo) (antibody) registered a Kd of 2190 nM. With APG-777 (Apogee) (antibody), in the assay with human FcRn (human) [2], the Fold Increase (FI) relative to Rituximab is 10.5 fold and the Kd came to 202 nM. CALY-002 (Calypso/Novartis) (antibody): in the assay with human FcRn (human) [2], the Fold Increase (FI) relative to Rituximab was 1.1 fold and the Kd is 1950 nM.
